system: Escherichia coli TOP10; test: shrunken log2 fold change of peptide-encoding DNA abundance (4.5 h post-induction vs induction); higher = less antimicrobial activity (less host growth inhibition); conditions: time post-induction: 4.5 h; library: site-saturation at positions 5, 18, 19, 20
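Further: peptides expressed intracellularly from a pBAD plasmid library in pooled LB shake-flask culture, induced with 0.3% L-arabinose, DNA abundance read by NGS, three biological replicates, DESeq2 with apeglm shrinkage.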

In order of falling “shrunken log2 fold change” value:
1. RRIRGRPPRLPRPRPRPNADPRP  2.38
2. RRIRRRPPRLPRPRPRPRHKPRP  1.89
3. RRIRWRPPRLPRPRPRPEMLPRP  1.17
4. RRIRARPPRLPRPRPRPVATPRP  0.982
5. RRIRARPPRLPRPRPRPAPAPRP  0.922
6. RRIRGRPPRLPRPRPRPPTTPRP  0.91
7. RRIRGRPPRLPRPRPRPGVSPRP  0.889
8. RRIRYRPPRLPRPRPRPTPMPRP  0.843
9. RRIRNRPPRLPRPRPRPKWRPRP  0.792
10. RRIRFRPPRLPRPRPRPKRPPRP  0.755
11. RRIRARPPRLPRPRPRPSLDPRP  0.735
12. RRIRGRPPRLPRPRPRPRRNPRP  0.609
13. RRIRERPPRLPRPRPRPTRQPRP  0.588
14. RRIRSRPPRLPRPRPRPKPKPRP  0.545
15. RRIRMRPPRLPRPRPRPWPKPRP  0.543
16. RRIRKRPPRLPRPRPRPKNWPRP  0.474
17. RRIRVRPPRLPRPRPRPEVMPRP  0.344
18. RRIRARPPRLPRPRPRPKMQPRP  0.32
19. RRIRPRPPRLPRPRPRPRDFPRP  0.317
20. RRIRKRPPRLPRPRPRPKCIPRP  0.317
21. RRIRQRPPRLPRPRPRPCAQPRP  0.308
22. RRIRERPPRLPRPRPRPCWRPRP  0.27
23. RRIRLRPPRLPRPRPRPVFAPRP  0.223
24. RRIRCRPPRLPRPRPRPWPLPRP  0.222
25. RRIRDRPPRLPRPRPRPVTPPRP  0.214
26. RRIRERPPRLPRPRPRPHARPRP  0.198
27. RRIRQRPPRLPRPRPRPVHWPRP  0.188
28. RRIRVRPPRLPRPRPRPMTQPRP  0.181
29. RRIRGRPPRLPRPRPRPSIHPRP  0.162
30. RRIRNRPPRLPRPRPRPVNAPRP  0.16
31. RRIRRRPPRLPRPRPRPQVHPRP  0.148
32. RRIRWRPPRLPRPRPRPQLVPRP  0.144
33. RRIRHRPPRLPRPRPRPPFRPRP  0.141
34. RRIRTRPPRLPRPRPRPVGRPRP  0.129
35. RRIRPRPPRLPRPRPRPSQPPRP  0.122
36. RRIRFRPPRLPRPRPRPADPPRP  0.109
37. RRIRSRPPRLPRPRPRPVQNPRP  0.0832
38. RRIRYRPPRLPRPRPRPRCEPRP  0.076
39. RRIRHRPPRLPRPRPRPAAIPRP  0.0732
40. RRIRVRPPRLPRPRPRPLAYPRP  0.0656
41. RRIRPRPPRLPRPRPRPTVMPRP  0.0636
42. RRIRERPPRLPRPRPRPMHKPRP  0.0621
43. RRIRVRPPRLPRPRPRPHQPPRP  0.0593
44. RRIRWRPPRLPRPRPRPTLKPRP  0.0453
45. RRIRGRPPRLPRPRPRPQFYPRP  0.0417
46. RRIRPRPPRLPRPRPRPWWHPRP  0.0413
47. RRIRPRPPRLPRPRPRPEVPPRP  0.0363
48. RRIRDRPPRLPRPRPRPDERPRP  0.0336
49. RRIRTRPPRLPRPRPRPVHCPRP  0.0307
50. RRIRSRPPRLPRPRPRPWPIPRP  0.0295
51. RRIRHRPPRLPRPRPRPWVTPRP  0.0283
52. RRIRSRPPRLPRPRPRPGQKPRP  0.0237
53. RRIRGRPPRLPRPRPRPVMMPRP  0.0154
54. RRIRCRPPRLPRPRPRPMEVPRP  0.015
55. RRIRVRPPRLPRPRPRPFPRPRP  0.0135
56. RRIRLRPPRLPRPRPRPMSSPRP  0.0128
57. RRIRDRPPRLPRPRPRPILPPRP  0.0106
58. RRIRDRPPRLPRPRPRPTYLPRP  0.00451
59. RRIRYRPPRLPRPRPRPPQRPRP  0.00441
60. RRIRKRPPRLPRPRPRPQDLPRP  -0.000826
61. RRIRTRPPRLPRPRPRPTYWPRP  -0.00518
62. RRIRFRPPRLPRPRPRPTAQPRP  -0.00528
63. RRIRNRPPRLPRPRPRPEMQPRP  -0.00804
64. RRIRNRPPRLPRPRPRPYQEPRP  -0.00962
65. RRIRIRPPRLPRPRPRPMKVPRP  -0.00968
66. RRIRHRPPRLPRPRPRPMLCPRP  -0.0124
67. RRIRFRPPRLPRPRPRPAIPPRP  -0.0151
68. RRIRIRPPRLPRPRPRPCQTPRP  -0.02
69. RRIRLRPPRLPRPRPRPKVKPRP  -0.0219
70. RRIRVRPPRLPRPRPRPQPFPRP  -0.0258
71. RRIRIRPPRLPRPRPRPHICPRP  -0.0273
72. RRIRKRPPRLPRPRPRPFIHPRP  -0.0282
73. RRIRVRPPRLPRPRPRPVHGPRP  -0.0285
74. RRIRGRPPRLPRPRPRPHCQPRP  -0.058
75. RRIRRRPPRLPRPRPRPMQFPRP  -0.058
76. RRIRKRPPRLPRPRPRPGTIPRP  -0.0588
77. RRIRWRPPRLPRPRPRPMVPPRP  -0.0589
78. RRIRSRPPRLPRPRPRPISSPRP  -0.0591
79. RRIRVRPPRLPRPRPRPCPMPRP  -0.0643
80. RRIRVRPPRLPRPRPRPIGRPRP  -0.0725
81. RRIRWRPPRLPRPRPRPCRDPRP  -0.0737
82. RRIRHRPPRLPRPRPRPTCLPRP  -0.0796
83. RRIRSRPPRLPRPRPRPEHNPRP  -0.0911
84. RRIRVRPPRLPRPRPRPRSYPRP  -0.0987
85. RRIRPRPPRLPRPRPRPHLLPRP  -0.0988
86. RRIRFRPPRLPRPRPRPDDMPRP  -0.0994
87. RRIRFRPPRLPRPRPRPDVCPRP  -0.1
88. RRIRIRPPRLPRPRPRPTGTPRP  -0.109
89. RRIRWRPPRLPRPRPRPENYPRP  -0.122
90. RRIRQRPPRLPRPRPRPLTYPRP  -0.13
91. RRIRRRPPRLPRPRPRPVQCPRP  -0.138
92. RRIRNRPPRLPRPRPRPGVMPRP  -0.141
93. RRIRGRPPRLPRPRPRPYDCPRP  -0.147
94. RRIRHRPPRLPRPRPRPFTGPRP  -0.171
95. RRIRCRPPRLPRPRPRPRFIPRP  -0.171
96. RRIRERPPRLPRPRPRPHKNPRP  -0.206
97. RRIRLRPPRLPRPRPRPWEQPRP  -0.206
98. RRIRRRPPRLPRPRPRPWNPPRP  -0.212
99. RRIRNRPPRLPRPRPRPHLYPRP  -0.22
100. RRIRTRPPRLPRPRPRPGNGPRP  -0.222
101. RRIRNRPPRLPRPRPRPFKWPRP  -0.224
102. RRIRCRPPRLPRPRPRPQLFPRP  -0.242
103. RRIRPRPPRLPRPRPRPIRVPRP  -0.262
104. RRIRMRPPRLPRPRPRPSHSPRP  -0.266
105. RRIRQRPPRLPRPRPRPKFNPRP  -0.271
106. RRIRSRPPRLPRPRPRPNNHPRP  -0.276
107. RRIRLRPPRLPRPRPRPDTRPRP  -0.278
108. RRIRRRPPRLPRPRPRPNTTPRP  -0.283
109. RRIRFRPPRLPRPRPRPSQEPRP  -0.286
110. RRIRERPPRLPRPRPRPVYPPRP  -0.335
111. RRIRRRPPRLPRPRPRPDYIPRP  -0.339
112. RRIRQRPPRLPRPRPRPKHNPRP  -0.368
113. RRIRPRPPRLPRPRPRPNRKPRP  -0.371
114. RRIRLRPPRLPRPRPRPWFVPRP  -0.399
115. RRIRLRPPRLPRPRPRPGYHPRP  -0.421
116. RRIRSRPPRLPRPRPRPCRYPRP  -0.424
117. RRIRQRPPRLPRPRPRPMYFPRP  -0.448
118. RRIRPRPPRLPRPRPRPHIPPRP  -0.492
119. RRIRYRPPRLPRPRPRPKMEPRP  -0.529
120. RRIRIRPPRLPRPRPRPNLYPRP  -0.565
121. RRIRPRPPRLPRPRPRPLEHPRP  -0.565
122. RRIRHRPPRLPRPRPRPSHSPRP  -0.577
123. RRIRHRPPRLPRPRPRPKIKPRP  -0.601
124. RRIRIRPPRLPRPRPRPACKPRP  -0.659
125. RRIRHRPPRLPRPRPRPSYPPRP  -0.868

From the supplement of paper PMC9112550, “Optimization of the antimicrobial peptide Bac7 by deep mutational scanning” (BMC Biology, 2022)
